Assay results from the supplement of paper PMC10724198.
± gives the standard deviation of the averaged measurements.

Tests used:
Saccharomyces cerevisiae [1] = test: protein stability index of tFT-peptide fusion (C-terminal peptide) (PSI (0-1 scale)); higher = more stable (slower turnover)
Experimental: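 MPS profiling in S. cerevisiae of the tFT-X12 degron library: putative degron peptides plus stable controls, 12 aa, fused to the C-terminus of a sfGFP-mCherry timer. Cells are FACS-sorted into 8 mCherry/sfGFP bins and deep-sequenced. PSI runs from 0 (unstable) to 1 (stable). Backgrounds are wild type, das1Δ and doa10Δ at 30 °C, and wild type, das1Δ, cdc34-1 and cdc53-1 at 37 °C; 2-3 technical replicates each.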

Saccharomyces cerevisiae [2] = test: as above; settings: genetic background: wild type; temperature: 30 C
[3] = genetic background: cdc34-1, temperature: 37 C
[4] = genetic background: cdc53-1, temperature: 37 C
[5] = genetic background: das1 deletion, temperature: 30 C
[6] = genetic background: das1 deletion, temperature: 37 C
[7] = genetic background: doa10 deletion, temperature: 30 C
[8] = genetic background: wild type, temperature: 30 C
[9] = genetic background: wild type, temperature: 37 C
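Note: PSI is a weighted mean of sequencing reads over stability bins, variants kept only with over 10 reads, mCherry proximal and sfGFP distal, peptide attached via GGGS linker.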

Sequence	protein stability index (Saccharomyces cerevisiae [1]; [3])	protein stability index (Saccharomyces cerevisiae [1]; [4])	protein stability index (Saccharomyces cerevisiae [1]; [5])	protein stability index (Saccharomyces cerevisiae [1]; [6])	protein stability index (Saccharomyces cerevisiae [1]; [7])	protein stability index (Saccharomyces cerevisiae [1]; [8])	protein stability index (Saccharomyces cerevisiae [1]; [9])	protein stability index (Saccharomyces cerevisiae [2])
RRQQNHRQLCAT	0.65 ± 0.092	0.708 ± 0.029	0.642 ± 0.028	0.7322 ± 0.0065	0.21 ± 0.018	0.259 ± 0.038	0.518 ± 0.038	0.401 ± 0.016
RRRNQAAHLYSH	0.617 ± 0.024	0.694 ± 0.044	0.67 ± 0.023	0.708 ± 0.0077	0.139 ± 0.022	0.159 ± 0.024	0.348 ± 0.011	0.268 ± 0.013
RSFGGRPWVLFL	0.623 ± 0.037	0.733 ± 0.023	0.638 ± 0.018	0.7549 ± 0.0052	0.106 ± 0.014	0.0971 ± 0.025	0.255 ± 0.019	0.192 ± 0.034
RTRVRKTRIRTC	0.624 ± 0.039	0.6934 ± 0.0022	0.637 ± 0.018	0.724 ± 0.015	0.234 ± 0.02	0.277 ± 0.0072	0.517 ± 0.011	0.392 ± 0.021
RVFLVLFLILSG	0.297 ± 0.021	0.428 ± 0.0072	0.287 ± 0.031	0.469 ± 0.0087	0.262 ± 0.0092	0.286 ± 0.018	0.425 ± 0.0055	0.344 ± 0.028
RVIRHLRRISNF	0.647 ± 0.035	0.745 ± 0.0042	0.661 ± 0.0098	0.705 ± 0.046	0.142 ± 0.009	0.16 ± 0.045	0.307 ± 0.034	0.369 ± 0.021
RVLSLLGCFVVF	0.501 ± 0.03	0.486 ± 0.013	0.448 ± 0.028	0.585 ± 0.018	0.485 ± 0.017	0.429 ± 0.013	0.558 ± 0.026	0.4651 ± 0.0023
RVLVEIVYFKVF	0.244 ± 0.0031	0.395 ± 0.032	0.256 ± 0.04	0.474 ± 0.012	0.037 ± 0.014	0.05 ± 0.0044	0.055 ± 0.00095	0.134 ± 0.0018
RVRNSQVVAVVG	0.491 ± 0.014	0.576 ± 0.014	0.354 ± 0.038	0.586 ± 0.0092	0.3291 ± 0.0023	0.382 ± 0.018	0.548 ± 0.022	0.477 ± 0.011
RVTEYHTKYKIV	0.487 ± 0.13	0.673 ± 0.076	0.656 ± 0.025	0.728 ± 0.077	0.0697 ± 0.0072	0.0674 ± 0.021	0.0807 ± 0.021	0.153 ± 0.012
RWAAAVPLLVVG	0.0233 ± 0.0059	0.0234 ± 0.0027	0.143 ± 0.026	0.105 ± 0.0046	0.111 ± 0.018	0.137 ± 0.032	0.0908 ± 0.0062	0.211 ± 0.022
RWRYHAYVITIL	0.334 ± 0.02	0.4158 ± 0.0037	0.392 ± 0.02	0.506 ± 0.0054	0.118 ± 0.0098	0.0812 ± 0.025	0.0987 ± 0.0088	0.138 ± 0.045
RYKIEKKKLMNN	0.667 ± 0.019	0.741 ± 0.18	0.602 ± 0.01	0.7361 ± 0.003	0.182 ± 0.0036	0.235 ± 0.035	0.448 ± 0.048	0.42 ± 0.038
SEVMVGLRLTLN	0.67 ± 0.051	0.728 ± 0.018	0.628 ± 0.033	0.7149 ± 0.0029	0.282 ± 0.0065	0.318 ± 0.03	0.545 ± 0.029	0.416 ± 0.038
SFRIWLFRFFFV	0.6 ± 0.034	0.669 ± 0.034	0.555 ± 0.047	0.651 ± 0.008	0.364 ± 0.025	0.372 ± 0.016	0.541 ± 0.032	0.407 ± 0.018
SFSFCCLLASFV	0.605 ± 0.015	0.6186 ± 0.006	0.484 ± 0.028	0.617 ± 0.014	0.444 ± 0.025	0.461 ± 0.015	0.603 ± 0.013	0.44 ± 0.044
SFSIPILLLAFP	0.264 ± 0.018	0.2229 ± 0.00014	0.311 ± 0.022	0.409 ± 0.011	0.451 ± 0.026	0.314 ± 0.021	0.3719 ± 0.0017	0.425 ± 0.006
SFYAGLVVGGVG	0.582 ± 0.038	0.616 ± 0.014	0.508 ± 0.026	0.6 ± 0.0064	0.525 ± 0.001	0.5 ± 0.018	0.5813 ± 0.0037	0.528 ± 0.053
SGLVAFSVCCRG	0.4091 ± 0.00089	0.449 ± 0.036	0.301 ± 0.039	0.5177 ± 0.0048	0.2625 ± 0.0015	0.308 ± 0.02	0.4862 ± 0.0037	0.433 ± 0.021
